Experiment: yeast display, Sf9 membrane polyspecificity reagent, FACS + sequencing; frameworks hold sequencing errors
Summary of the method: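 Galactose induction of a Saccharomyces cerevisiae BJ5465 synthetic nanobody display library ran 36–48 hours. The cells were then stained for 1 hour at 4 °C with 10% biotinylated, detergent-solubilized Sf9 membrane reagent, pulled down on streptavidin microbeads and FACS-sorted into low and high (top ~1%) gates on expression and reagent-binding fluorescence. Labels for polyreactivity follow the gate of origin.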

Row | Sequence | polyreactivity (PSR sort gate)
1 | QVQLVESGGGLVQAGGSLRLSCAASGITFYRYAMGWYRQAPGKERELVAAISSRGGRTYYADSVKGRFTISRDNAKNTVYLQMNSLKPEDTAVYYCAKGGKVGSTLEYDYWGQGTQVTVSS | high polyreactivity
2 | QVQLVESGGGLVQAGGSLRLSCAASGSTFDTYAMGWYRQAPGKEREFVATITGSGGSTYYADSVKVRFTITRDNAKNTVYLQMNSLKPEDTAVYYCNAETYIDLRGKFPVEYDYWGQGTQVTVSS | low polyreactivity
3 | QVQLVESGGGLVQAGGSLRLSCAASGSIFTIYAMGWYRQAPGKERELVAAITRSGGSTSYADSVKGRFTISRDNAKNTVYLQMNSLKPEDTAVYYCNKDLNFAKYISSILYDYWGQGTQVTVSS | low polyreactivity
4 | QVQLVESGGGLVQAGGSLRLSCAASGRTFIYYAMGWSRQAPGKERELVAGISRNGGRTYYADSVKGRFTISRDNAKNTVYLQMNSLKPEDTAVYYCNAYPPSRHDYLGQGTQVTVSS | high polyreactivity
5 | QVQHVESGGGIVQAGGSLRLTCAASGSTFGGNGMGWYRQAPGKEREFVATNTWRSVSTYYADSVKGRFTISRDNAKNTDFLQMISLKPEDTAVYYCAARLYRFASYRMDYWGQGTQVTVSS | high polyreactivity
6 | QVQLVESGGGLDQAGGSLRLSCAASGSIFYDNTMAWYRQAAGKERDLVADISSGDSTYYADSVKGRFTISRDNAKNTVYLQMNSLKPEDTAVYYCNADVYSWVSVKEGDYWGQGTEVTVSS | low polyreactivity
7 | QVQLVESGGGLVQAGGSLRLSCAASGSTFACNGMGWYRQAPGKERELVAGIDVTGGSTYYADSVKGRFTISRDNAKNTDYLQMNSMKPEDTAVYYCNARYVYHSSFAGFDYWGQGTQVTVSS | low polyreactivity
8 | QVQLVESGGGLVQAGGSLRLSCAASGRIFVWNTMGWYRQAPGKERELVAAITSGGSTTYADSVKGRFTISRDNAKNSVSFQMNSLKPEDTAVYYCNTELDLYHPGDDYWGQGTQVTVSS | high polyreactivity
9 | QVQLVESGGGLVQAGGSLRLSCAASGSIFGLYAMGWYRQAPGNERELVAAINQSGGSTSYADSVKGRFTISRDNAKNTVYLQMNSLKPEDTAVYYCAAKRSWGATRRAYGRYDYWGQGTQVTVSS | low polyreactivity
10 | QVQLVESGGGLVQAGGSLRLSCAASGSTFSTYAMGWYRQAPGKERELVAAIRSGGSTYYADSVKGRFTISRDNAKNTVYLQMNSLKPEDTAVYYCAAKPRNYSYRYYYWGQGTLVTVSS | high polyreactivity
11 | QVQLVESGGGLVQAGGSLRLSCAASGSIFSNYAMGWYRQAPGKERELVAAITLSSGGTYYADSVKGRFTISRDNAKNTVYFQMNSLKPEDTAVYYCAAQYKYFIHRYYYWGQGTQVTVSS | high polyreactivity
12 | QVQLVESGGGLVQAGGSLRLSCPDSVRIFYYNTMGWYRQAPGKERQLVAAISAGGGRTYYADSVKGRFTISRDNAKNTVYFQMNRLKPEDTAVYYCAARKRAQQGTRDHDYWGQGSQVTVSS | high polyreactivity
13 | QVQLVESGGRLVQAGGSLRLSCAPSGFMFADYMGWYRQAPGKERALVASISSTGSSTYADSVKGRFTITRDNAKNTVYLPMNSLKPEDTAVYDCAATGVWYSSNDYASEYDYWGQGTQVTVSS | high polyreactivity
14 | QVQLVESGGGLVQAGGSLRLSCAASGRTFRYYAMGWYRQAPGKEREFVAAITSRSSRTYYADSVKGRFTISRDNAKNTVYLQMNSLKPEDTAVYYCNADYRRYPEFDYWGQGTQVTVSS | high polyreactivity
15 | QVQLVESGGGLVQAGGSLRLSCAASGSTFFLYSMGWYRPAPGKERELVAAINYIGGTYYADSVKGRFTISRDNAKNTVYLQMNSLKPEDTAVYYCAASYVGTIAGMDYWGQGTQVTVSS | low polyreactivity
16 | QVQLVESGGGLVQAGGSLRLSCAASGRTFTGYAMGWYRQAPGKERELVAAMSASGGSTYYADSVKGRFTISRDNAKNTVYLQMNSLKPEDTAVYYCAAETWYSVLWEEGYDYWGQGTQVTVSS | low polyreactivity
17 | QVQLVESGGGLVQAGGSLRLSCAASGRTFGLNVMGWYRPAPGKDRELVATISGVGSTNYADSVKGRFTISRDNAKNTVYLQMNSLKPEDTAVYYCAAGGTSGQEFGYWGQGTQVTVSS | low polyreactivity
18 | QVHLVESGGGLVQAGGSLRLSCAPSGLTFPYNAMGWYRQAPGKESELVAAISRGGGTNYADSVKGRFTISRDNAKNTVYLQMNSLKPEDTAVYYCAAEYATWWGGYDYSGQGTQVTVSS | low polyreactivity
19 | QVQLVESGGGLVQAGGSLRLSCAASGNIFYYNAMGGNRQAPGKERELVAAITTGGSTNYADSVKGRFTISRDNAKNTVYLQMNSLTPEDTAVYDCAADFIRYINRLLYDYWGQGTQVTVSS | low polyreactivity
20 | QVQLVESGGGLVQAGGSLRLSCAASGRIFYSIAMGWYRQAPGKERELVAAISRSGVRTYYADSVKGRFTISRDNAKNTVYLQMNSLKPEDTAVYYCAAVIYGTTPQDEYDYWGQGTQVTVSS | low polyreactivity
21 | QVQLPGSGGGLVQAGGSLRLSCAASGYIFQNVPMGWTRQAPGKERDLVAGIDNGTSTNYADSVNGRFTISRDNAKNTVYLQMNSLKPEDTAVYYCAAAGQADDTLGYWGQGTQVTVSS | low polyreactivity
22 | QVQLLESGGGLVQAGGSLRLTCGASGITFSVNTMGWYRQAPGKDRELVAAFTSAGGTYYADSVKGRFTISRDTAKNTVYFQMISQKPEDTAVYYCATPYDIQWASESHDYWGQGTQVTVSS | low polyreactivity

Row | Sequence | polyreactivity (PSR sort gate)
23 | QVQLVESGGGLVQAGGSLRLSCAASGFIFNYYAMGWYRQAPGKEREFVAAITWRGGSTNYADSVKGRFTISRDNAKNTVYLQMNSLKPEETAVYYCAAYSVWGGSYLALDYWGQGTQVTVSS | low polyreactivity
24 | QVQLVESGGGLVQAGGSLRLSCAASGRIFVPYAMGWYRQAPGKERELVAAISWNTGSTYYADSVKGRFTISRDNAKNTVYLQMNSLKPEDTAVYYCAAGSRVRYDGGYKINGYWGQGTQVTVSS | high polyreactivity
25 | QVQLVESGGGLVQAGGSLRLSCAASGRNFDRNAMGWSRQAPGKERELVARIDPGDDTNYADSVKGRFTISRDNAKNTVYLQMNSLKPEDTAVYYCATDPDYVLYRTAYYEYDYWGQGTQVTVSS | low polyreactivity
26 | QVQLVESGGGLDQAGGSLRLSCAASGFTFRFYAIGWYRQAPGKERELVAAIDTSGGRTYYADSVKGRFTISRDNANNTVYLQMNSLKPEDTAVYYCNAQVLYRYDYWGQGTQVTVSS | high polyreactivity
27 | QVQLVESGGGSLRLSCAASALTFGGYTMGWYRQAPGKERELVAAISSSDSTNYADSVKGRFTISRDNAKNTVYLQMNSLKPEDTAVYYCAADSGQWSRYSSFGDEGDSWGQGTEVTVSS | low polyreactivity
28 | QDQLVESAGGLVQAGGSLRLSCAATASTFHLYAMGWYRQAAGKERELVASIRWSGGSTYYADSVKGRFTISRDNAKNTVYLQMNSLKPEDTAVYYCASEAVPYWSWGRPMYYWGQGTQVTVSS | high polyreactivity
29 | QVQLVESGGGLVQAGGSLRLSCAASGRIFGYNAMGWYRQAPGKERELVAAISDDGSTNYADSVKGRFTISRDNAKNTVYLQMNSLKPEDTAVYYCNADITFYTWGWYYIRYEYWGQGTQVTVSS | low polyreactivity
30 | QVQLVESGGGLVQAGGSLRLSCAASGSIFASYAMGWYRQAPGKERELVAAISQNGSRTYYAVSVKGRFTISRDNAKYTVYLQMNSLKPEDTAVYYCAVLSRQYFRYGYDYWGQGTQVTVSS | high polyreactivity
31 | QVQLVESGGGLVQAGGSLRLSCAASGSTFYDYVMGWYRQAPGKERELVAVISSSGSTNYADSVKGRITISRDNAKNTVYLQMNSLKTEDTAVYYCAAEYTFDWLEFDYWGQGTQVTVSS | low polyreactivity
32 | QVQLVESGGGLVQEGGSLRLSCAASGNMLGTYAMGWYILAPGIEREFVAAISSSVGSTYYADSVKGRFTISRDNAKNSVYLQMNILKPEDTAVYYCAARKYQIYEKWGYLYDYWGQGTQVTVSS | low polyreactivity
33 | QVQLVESGGGLVQAGGSLRLSCAASGSTFGKYAMGWYRQAPGKERELVAAITWSGASTFYADSVKGRFTISRDNAKNTVYLQMNSLKPEDTAVYYCAARSYKSYYIFDYWGQGTQVTVSS | low polyreactivity
34 | QVQLVESGGGLVQAGGSLRVSCAASGINFDYYVMGWYRQAPGKERELVAAISRSGDRTNYADSVKGRFTSSRDHEKYTVFLLMNSLKPEDTAVYYCAARVRIRGGGYDYWGQGTQVTVSS | high polyreactivity
35 | QVQLVESGGGLVQAGGSLRLSCAASGRTFTPYAMGWYRQAPGKERELVAAINSDGSTNYADSVKGRFTISRDNAKNTVYLHMNSLKPEDTAVYYCAAGYSLEGDYWGQGTQVTVSS | low polyreactivity
36 | QVQLLESGGGLVQAGGSLRLSSAASGSILDHYAMGWYRQAPGNEREFVAAISIRGGSTYYADSVKGRFTISRDNAKNTVFLQMNSLKPEDNAVYYCAATAQYGRDSWSSYRMFPPYDYWGQGTEVTVSS | low polyreactivity
37 | QVHLVESCGGLVQAGGSLRLSCAASGFTFYTYTMGWYRQAPGKERELVAVISRSGGSTYYADSVKGRFTISRDNAKNTVYLQMNSLKPEDTAVYYCNAGYWRFIDSYDYWGQGTQVTVSS | high polyreactivity
38 | QVQLVESGGGLVQAGGSLRLSCAASGFTFRKYAMGWYRQAPGKERELVADISGGTGSTYYADSVKGRFTISRDNAKNTDYLHMNSLKPEDTAVYYCNAEGWYYLTEYGYWGQGTQLTVSS | low polyreactivity
39 | QVQLVESGGGLVQAGGSLRLSCAASGGIFIGYAMGWYRPAPGKERELVARIRSSGGTTYYADSVKGRFTISRDNAKNTVYLQMNSLKPEDTAVYYCAKRTSSSWAYGPYYYWGQGTQVTVSS | high polyreactivity
40 | QVQLVESGGGLVQAGGSLRVSCAASGSTFRKYAMGWYRQAPGKEREFVAAITSSGGSTYYADSVKGRFTISRDNAKNTLYLQMNSLKPEDTAVYYCAARGDSVSTAYNYWGQGTQVTVSS | high polyreactivity
41 | QVQLVESGGGLVQAGGSLRLSCAASGSTFGANAMGWYRQAPGKEREFVAAISRSGVRTYYADSVKGRFTISRDNAKNTVYLQMNSLKPEDTAVYYCAARFWYDYRHYDYWGQGTQVTVSS | low polyreactivity
42 | QVQLVETGGGLVQAGGSLRLSCAASGYTLPANGKGWYRQAPGKDRELVAAISFIAGSTYYADSVNGRFTISRDNAKNTVYLQMNSLKPEDTAGYYCATQFPRSTIYDYWGQGTQVTVSS | low polyreactivity
43 | QVQLVESGGGLVQAGGSLRLSCAASGRIFRSNAMGWYRQAPGKERELVATITSSGGRTYYADSVKGRFTISRDNAKNTVYLQMNSLKPEDTAVYYCNAQQRTRGQKAQWVRDEYWGQGTQVTVSS | low polyreactivity

Source: the nanobody polyreactivity screen of Harvey et al. (2022)
